The results in this text go back to article PMC3943285, “Activity of a Carboxyl-Terminal Truncated Form of Catechol 2,3-Dioxygenase from Planococcus sp. S5” (The Scientific World Journal, 2014).

Broadly, the Km is the substrate concentration at which the rate is half of its maximum. One may read the Vmax as the rate approached at saturating substrate.

The subject of the series is Oc1ccccc1O. In words: cells, lysate or membranes. The note with it: catechol 0-150 µM, 35 °C, 50 mM phosphate pH 7.5 (general assay), O2 co-substrate, crude extract.
The mark [1] stands for this setting: C-terminally truncated (stop at 289).

On to “C23Owt (catechol 2,3-dioxygenase from Planococcus sp. S5) (Planococcus sp. S5; C103R)”, for which, under setting [1], the Km worked out at 66.17 ± 9.44 µM and the maximum rate (Vmax) stood at 0.104 µmol/min/mg.

As to “C23Owt (catechol 2,3-dioxygenase from Planococcus sp. S5) (Planococcus sp. S5)”, the Km came out at 97.74 ± 10.91 µM and the maximum rate (Vmax) is 0.115 µmol/min/mg.
